In patent US20190352359A1 (IMMATICS BIOTECHNOLOGIES, published 2019) one finds peptide exchange yield data, which are given here for 61 molecules.

Sequences and labels used below:
B1: BTN1-003 (peptide)
peptide: IYTFSNVTF
notes: also called IYTFSNVTF
B2: ACSM1-001 (peptide)
peptide: IFIPATILL
notes: also called IFIPATILL
B3: OR9-001 (peptide)
peptide: LYYGSILYI
notes: also called LYYGSILYI
B4: OFCC-001 (peptide)
peptide: FYNRLTKLF
notes: also called FYNRLTKLF
B5: NLRP4-005 (peptide)
peptide: MLPEASLLI
notes: also called MLPEASLLI
B6: MMP11-020 (peptide)
peptide: ALMSAFYTF
notes: also called ALMSAFYTF
B7: NKX-001 (peptide)
peptide: RYLSVCERL
notes: also called RYLSVCERL
B8: SMC1B-003 (peptide)
peptide: LYPDSVFGRLF
notes: also called LYPDSVFGRLF
B9: GREB-002 (peptide)
peptide: AYLQFLSVL
notes: also called AYLQFLSVL
B10: ERV-001 (peptide)
peptide: FYFYNCSSL
notes: also called FYFYNCSSL
B11: SLC6A3-002 (peptide)
peptide: IYPEAIATL
notes: also called IYPEAIATL
B12: HMCN1-008 (peptide)
peptide: ISWEVVHTVF
notes: also called ISWEVVHTVF
B13: ANO7-002 (peptide)
peptide: IYVSLAHVL
notes: also called IYVSLAHVL
B14: QRFPR-004 (peptide)
peptide: VYAFMNENF
notes: also called VYAFMNENF
B15: TERT-003 (peptide)
peptide: FFYVTETTF
notes: also called FFYVTETTF
B16: MMP12-020 (peptide)
peptide: TYFFVDNQYW
notes: also called TYFFVDNQYW
B17: CLECL-003 (peptide)
peptide: VYISDVSVY
notes: also called VYISDVSVY
B18: TRDV3-002 (peptide)
peptide: VYSNPDLFW
notes: also called VYSNPDLFW
B19: FOXB1-002 (peptide)
peptide: QYLQQQAKL
notes: also called QYLQQQAKL
B20: HEPHL-008 (peptide)
peptide: YYIGIVEEYW
notes: also called YYIGIVEEYW
B21: NMUR2-003 (peptide)
peptide: AFQNVISSF
notes: also called AFQNVISSF
B22: ESR1-009 (peptide)
peptide: QKYYITGEAEGF
notes: also called QKYYITGEAEGF
B23: MMP12-018 (peptide)
peptide: KYVDINTFRL
notes: also called KYVDINTFRL
B24: CCR8-004 (peptide)
peptide: TYATHVTEI
notes: also called TYATHVTEI
B25: FCRL5-007 (peptide)
peptide: LSSPVHLDF
notes: also called LSSPVHLDF
B26: TFEC-004 (peptide)
peptide: IYSSQLPSF
notes: also called IYSSQLPSF
B27: NOTU-001 (peptide)
peptide: PYWWNANMVF
notes: also called PYWWNANMVF
B28: MAGEA4-008 (peptide)
peptide: IFPKTGLLII
notes: also called IFPKTGLLII
B29: HEPHL-003 (peptide)
peptide: HYHAESFLF
notes: also called HYHAESFLF
B30: ABCC11-004 (peptide)
peptide: FFLQESPVF
notes: also called FFLQESPVF
B31: F5-006 (peptide)
peptide: PYSIYPHGVTF
notes: also called PYSIYPHGVTF
B32: SLCO6-001 (peptide)
peptide: IYNKTKMAF
notes: also called IYNKTKMAF
B33: FLT3-012 (peptide)
peptide: TQAGEYLLF
notes: also called TQAGEYLLF
B34: ADAM18-001 (peptide)
peptide: IFLPFFIVF
notes: also called IFLPFFIVF
B35: STK31-001 (peptide)
peptide: LYMSVEDFI
notes: also called LYMSVEDFI
B36: FOXB1-001 (peptide)
peptide: IYKFIMDRF
notes: also called IYKFIMDRF
B37: EPY-001 (peptide)
peptide: MYDLHHLYL
notes: also called MYDLHHLYL
B38: OR1N1-001 (peptide)
peptide: MYTIVTPML
notes: also called MYTIVTPML
B39: NLRP2-008 (peptide)
peptide: KYLITTFSL
notes: also called KYLITTFSL
B40: NPFFR2-003 (peptide)
peptide: KIYTTVLFANI
notes: also called KIYTTVLFANI
B41: COL11A1-003 (peptide)
peptide: IYNEHGIQQI
notes: also called IYNEHGIQQI
B42: ABCC11-006 (peptide)
peptide: VYSDRQIYLL
notes: also called VYSDRQIYLL
B43: KBTBD8-004 (peptide)
peptide: RWLSKPSLL
notes: also called RWLSKPSLL
B44: AFP-001 (peptide)
peptide: LYAPTILLW
notes: also called LYAPTILLW
B45: HEPHL-005 (peptide)
peptide: RYFIAAEKILW
notes: also called RYFIAAEKILW
B46: RHBG-001 (peptide)
peptide: QRYGFSSVGF
notes: also called QRYGFSSVGF
B47: PTP-043 (peptide)
peptide: VFPSVDVSF
notes: also called VFPSVDVSF
B48: FLT3-013 (peptide)
peptide: TYSTNRTMI
notes: also called TYSTNRTMI
B49: SLC45A2-006 (peptide)
peptide: LYTVPFNLI
notes: also called LYTVPFNLI
B50: TCL1A-005 (peptide)
peptide: VYLDEKQHAW
notes: also called VYLDEKQHAW
B51: PIWIL1-003 (peptide)
peptide: IWPGFTTSI
notes: also called IWPGFTTSI
B52: CTL-001 (peptide)
peptide: LYICKVELM
notes: also called LYICKVELM
B53: LOXL4-002 (peptide)
peptide: AWSPPATLF
notes: also called AWSPPATLF
B54: CNR2-003 (peptide)
peptide: DYLLSWLLF
notes: also called DYLLSWLLF
B55: FLT3-009 (peptide)
peptide: AYPQIRCTW
notes: also called AYPQIRCTW
B56: C1orf94-002 (peptide)
peptide: SYTPLLSYI
notes: also called SYTPLLSYI
B57: NLR-006 (peptide)
peptide: CYSFIHLSF
notes: also called CYSFIHLSF
B58: CHRNA9-004 (peptide)
peptide: YYIATMALI
notes: also called YYIATMALI
B59: HHIPL2-001 (peptide)
peptide: AYAPRGSIYKF
notes: also called AYAPRGSIYKF
B60: CAPN6-005 (peptide)
peptide: TYIDTRTVFL
notes: also called TYIDTRTVFL
B61: HBG2-001 (peptide)
peptide: VLPLHFLPF
notes: also called VLPLHFLPF

This assay deals with T1, HLA-A*24.
T1 construct: Monomers captured on streptavidin plates; also called peptide-receptive MHC molecules; MHC complexes
Put plainly: UV peptide-exchange ELISA (anti-b2m); yield grade ++++ = >75%. The source says: Candidate peptides for T cell based therapies according to the present invention were further tested for their MHC binding capacity (affinity). The individual peptide-MHC complexes were produced by UV-ligand exchange, where a UV-sensitive peptide is cleaved upon UV-irradiation, and exchanged with the peptide of interest as analyzed. Only peptide candidates that can effectively bind and stabilize the peptide-receptive MHC molecules prevent dissociation of the MHC complexes. To determine the yield of the exchange reaction, an ELISA was performed based on the detection of the light chain (p2m) of stabilized MHC complexes. The assay was performed as generally described in Rodenko et al. (Rodenko et al., 2006)
96 well MAXISorp plates (NUNC) were coated over night with 2 ug/ml streptavidin in PBS at room temperature, washed 4× and blocked for 1 h at 37° C. in 2% BSA containing blocking buffer. Refolded HLA-A*02:01/MLA-001 monomers served as standards, covering the range of 15-500 ng/ml. Peptide-MHC monomers of the UV-exchange reaction were diluted 100-fold in blocking buffer. Samples were incubated for 1 h at 37° C., washed four times, incubated with 2 ug/ml HRP conjugated anti-β2m for 1h at 37° C., washed again and detected with TMB solution that is stopped with […]. Absorption was measured at 450 nm. Candidate peptides that show a high exchange yield (preferably higher than 50%, most preferred higher than 75%) are generally preferred for a generation and production of antibodies or fragments thereof, and/or T cell receptors or fragments thereof, as they show sufficient avidity to the MHC molecules and prevent dissociation of the MHC complexes.
The molecule B1 gave a peptide exchange yield of more than 75%. In the case of B2 it was more than 75%; in that of B3, more than 75%. The value for B4 was more than 75%.

Consider B5, for which the peptide exchange yield was more than 75%.

Molecule B6 showed a peptide exchange yield of more than 75%. In the case of B7 it was more than 75%; in that of B8, more than 75%. Regarding B9, the peptide exchange yield was more than 75%. The value for B10 was more than 75%. For the molecule B11, the peptide exchange yield is more than 75%. In the case of B12 it was more than 75%.

For the molecule B13, the peptide exchange yield was more than 75%. Turning to B14, the peptide exchange yield was more than 75%. The value for B15 was more than 75%. The value for B16 was more than 75%; that for B17 was more than 75%.

Molecule B18 came in with a peptide exchange yield of more than 75%.

Regarding B19, the peptide exchange yield was more than 75%. For the molecule B20, the peptide exchange yield is more than 75%. Take B21: the peptide exchange yield is more than 75%. In the case of B22 it was more than 75%. B23: the peptide exchange yield is more than 75%. The value for B24 was more than 75%; that for B25 was more than 75%; that for B26 was more than 75%. In the case of B27 it was more than 75%; in that of B28, more than 75%; in that of B29, more than 75%. B30 came in with a peptide exchange yield of more than 75%. B31 showed a peptide exchange yield of more than 75%. The value for B32 was more than 75%; that for B33 was more than 75%. The value for B34 was more than 75%. For the molecule B35, the peptide exchange yield is more than 75%. The value for B36 was more than 75%; that for B37 was more than 75%; that for B38 was more than 75%. The value for B39 was more than 75%.

For the molecule B40, the peptide exchange yield is more than 75%. Molecule B41 returned a peptide exchange yield of more than 75%.

Turning to B42, the peptide exchange yield was more than 75%.

The molecule B43 registered a peptide exchange yield of more than 75%. In the case of B44 it was more than 75%; in that of B45, more than 75%; in that of B46, more than 75%.

As for B47, the peptide exchange yield is more than 75%.

Consider B48, for which the peptide exchange yield was more than 75%.

B49 had a peptide exchange yield of more than 75%. Turning to B50, the peptide exchange yield is more than 75%. The value for B51 was more than 75%; that for B52 was more than 75%. The value for B53 was more than 75%; that for B54 was more than 75%.

Molecule B55 showed a peptide exchange yield of more than 75%. B56: the peptide exchange yield is more than 75%.

B57 returned a peptide exchange yield of more than 75%. In the case of B58 it was more than 75%. The value for B59 was more than 75%. The value for B60 was more than 75%; that for B61 was more than 75%.
